Results published in patent US20170037111A1, “Novel peptides and combination of peptides for use in immunotherapy against ovarian cancer and other cancers” (immatics biotechnologies GmbH, priority 2015, published 2017).

Biological target: HLA-A*02:01 (Homo sapiens, UniProt P04439, D140Y/D185E/D98H/E176V/E277Q/G131W/G231S/I119V/I121R/I166T/I218V/L300P/L318F/N151K/N90K/P208A/P217A/Q86G/Q94H/R138H/R169H/T345S)
Assay: MHC binding assay (UV-ligand exchange, β2m ELISA, peptide exchange yield)
Conditions: MHC class I binding score; binding to HLA-A*02:01 ranged by peptide exchange yield (UV-ligand exchange, β2m ELISA)
Description: Candidate peptides for T cell based therapies according to the present invention were further tested for their MHC binding capacity (affinity). The individual peptide-MHC complexes were produced by UV-ligand exchange, where a UV-sensitive peptide is cleaved upon UV-irradiation, and exchanged with the peptide of interest as analyzed. Only peptide candidates that can effectively bind and stabilize the peptide-receptive MHC molecules prevent dissociation of the MHC complexes. To determine the yield of the exchange reaction, an ELISA was performed based on the detection of the light chain (β2m) of stabilized MHC complexes. The assay was performed as generally described in Rodenko et al. (Rodenko et al., 2006).
96 well MAXISorp plates (NUNC) were coated over night with 2 ug/ml streptavidin in PBS at room temperature, washed 4× and blocked for 1h at 37° C. in 2% BSA containing blocking buffer. […] Peptide-MHC monomers of the UV-exchange reaction were diluted 100 fold in blocking buffer. Samples were incubated for 1h at 37° C., washed four times, incubated with 2 ug/ml HRP conjugated anti-β2m for 1h at 37° C., washed again and detected with TMB solution that is stopped with […]. Absorption was measured at 450 nm. Candidate peptides that show a high exchange yield (preferably higher than 50%, most preferred higher than 75%) are generally preferred for a generation and production of antibodies or fragments thereof, and/or T cell receptors or fragments thereof, as they show sufficient avidity to the MHC molecules and prevent dissociation of the MHC complexes.

| Substance | Peptide exchange |
| --- | --- |
| 92 (YLIPFTGIVGL; listed as Homo sapiens) [compound 92] | ″++″ (≧20% = ++) |
| 523 (YQIPRTFTL; listed as Homo sapiens) [compound 523] | ″++″ (≧20% = ++) |
| 490 (FLLQHVQEL; listed as Homo sapiens) [compound 490] | ″+++″ (≧50% = +++) |
| 520 (LAVHPSGVAL; listed as Homo sapiens) [compound 520] | ″+″ (≧10% = +) |
| 142 (FLFATPVFI; listed as Homo sapiens) [compound 142] | ″+++″ (≧50% = +++) |
| 280 (VLPDPEVLEAV; listed as Homo sapiens) [compound 280] | ″+++″ (≧50% = +++) |
| 343 (SLLEVNEESTV; listed as Homo sapiens) [compound 343] | ″+++″ (≧50% = +++) |
| 389 (LLADVTHLL; listed as Homo sapiens) [compound 389] | ″++″ (≧20% = ++) |
| 110 (FLSQVDFEL; listed as Homo sapiens) [compound 110] | ″+++″ (≧50% = +++) |
| 353 (YLFEMDSSL; listed as Homo sapiens) [compound 353] | ″++″ (≧20% = ++) |
| 167 (KVLEVTEEFGV; listed as Homo sapiens) [compound 167] | ″+++″ (≧50% = +++) |
| 109 (IILSILEQA; listed as Homo sapiens) [compound 109] | ″++++″ (≧75% = ++++) |
| 557 (KLYDDMIRL; listed as Homo sapiens) [compound 557] | ″+++″ (≧50% = +++) |
| 188 (GLFPVTPEAV; listed as Homo sapiens) [compound 188] | ″+++″ (≧50% = +++) |
| 375 (SLTETIEGV; listed as Homo sapiens) [compound 375] | ″++″ (≧20% = ++) |
| 206 (VLQEGKLQKLAQL; listed as Homo sapiens) [compound 206] | ″+++″ (≧50% = +++) |
| 617 (ALMYESEKVGV; listed as Homo sapiens) [compound 617] | ″+++″ (≧50% = +++) |
| 30 (LILDWVPYI; listed as Homo sapiens) [compound 30] | ″+++″ (≧50% = +++) |

| Substance | Peptide exchange |
| --- | --- |
| 71 (GILARIASV; listed as Homo sapiens) [compound 71] | ″+++″ (≧50% = +++) |
| 600 (ALAAPDIVPAL; listed as Homo sapiens) [compound 600] | ″+++″ (≧50% = +++) |
| 123 (NLWDLTDASVV; listed as Homo sapiens) [compound 123] | ″+++″ (≧50% = +++) |
| 471 (YLYNNMIAKI; listed as Homo sapiens) [compound 471] | ″+++″ (≧50% = +++) |
| 444 (GLLRDEALAEV; listed as Homo sapiens) [compound 444] | ″+++″ (≧50% = +++) |
| 276 (ALFTFSPLTV; listed as Homo sapiens) [compound 276] | ″+++″ (≧50% = +++) |
| 376 (AMFESSQNVLL; listed as Homo sapiens) [compound 376] | ″++″ (≧20% = ++) |
| 51 (LLPDLEFYV; listed as Homo sapiens) [compound 51] | ″++++″ (≧75% = ++++) |
| 479 (SLFGNSGILENV; listed as Homo sapiens) [compound 479] | ″+++″ (≧50% = +++) |
| 241 (SLVEVNPAYSV; listed as Homo sapiens) [compound 241] | ″+++″ (≧50% = +++) |
| 548 (ALWENPESGEL; listed as Homo sapiens) [compound 548] | ″++″ (≧20% = ++) |
| 400 (SLLTEQDLWTV; listed as Homo sapiens) [compound 400] | ″++″ (≧20% = ++) |
| 606 (ALWETEVYI; listed as Homo sapiens) [compound 606] | ″+++″ (≧50% = +++) |
| 611 (YLLDDGTLVV; listed as Homo sapiens) [compound 611] | ″++++″ (≧75% = ++++) |
| 448 (NLLETKLQL; listed as Homo sapiens) [compound 448] | ″+++″ (≧50% = +++) |
| 429 (GLVNDLARV; listed as Homo sapiens) [compound 429] | ″++″ (≧20% = ++) |
| 28 (QLLDETSAITL; listed as Homo sapiens) [compound 28] | ″+++″ (≧50% = +++) |
| 128 (YLFDDPLSAV; listed as Homo sapiens) [compound 128] | ″++″ (≧20% = ++) |

Further lines, results first:

| Peptide exchange | Substance |
| --- | --- |
| ″++++″ (≧75% = ++++) | 126 (VLAYFLPEA; listed as Homo sapiens) [compound 126] |
| ″++++″ (≧75% = ++++) | 303 (AILPQLFMV; listed as Homo sapiens) [compound 303] |
| ″+++″ (≧50% = +++) | 327 (GLAPFTEGISFV; listed as Homo sapiens) [compound 327] |
| ″+++″ (≧50% = +++) | 238 (YLISFQTHI; listed as Homo sapiens) [compound 238] |
| ″++++″ (≧75% = ++++) | 77 (ILVEADGAWVV; listed as Homo sapiens) [compound 77] |
| ″++++″ (≧75% = ++++) | 371 (FLQAHLHTA; listed as Homo sapiens) [compound 371] |
| ″++″ (≧20% = ++) | 269 (RVLEVGALQAV; listed as Homo sapiens) [compound 269] |
| ″+++″ (≧50% = +++) | 616 (VLIDEVESL; listed as Homo sapiens) [compound 616] |
| ″++++″ (≧75% = ++++) | 348 (ILLDVKTRL; listed as Homo sapiens) [compound 348] |
| ″+++″ (≧50% = +++) | 388 (SLTIDGIRYV; listed as Homo sapiens) [compound 388] |
| ″+++″ (≧50% = +++) | 69 (FQLDPSSGVLVTV; listed as Homo sapiens) [compound 69] |
| ″++++″ (≧75% = ++++) | 585 (ALWDLAADKQTL; listed as Homo sapiens) [compound 585] |
| ″+++″ (≧50% = +++) | 297 (VLADIELAQA; listed as Homo sapiens) [compound 297] |
| ″+++″ (≧50% = +++) | 562 (YLEELPEKLKL; listed as Homo sapiens) [compound 562] |
| ″++″ (≧20% = ++) | 80 (FLYDNLVESL; listed as Homo sapiens) [compound 80] |
| ″+++″ (≧50% = +++) | 635 (SLDSTLHAV; listed as Homo sapiens) [compound 635] |
| ″++″ (≧20% = ++) | 333 (FLPDANSSV; listed as Homo sapiens) [compound 333] |
| ″+++″ (≧50% = +++) | 165 (SLLDEIRAV; listed as Homo sapiens) [compound 165] |

| Peptide exchange | Substance |
| --- | --- |
| ″++″ (≧20% = ++) | 526 (RLAEVGQYEQV; listed as Homo sapiens) [compound 526] |
| ″+++″ (≧50% = +++) | 76 (ILIDSIYKV; listed as Homo sapiens) [compound 76] |
| ″+++″ (≧50% = +++) | 530 (VMYADIGGMDI; listed as Homo sapiens) [compound 530] |
| ″++″ (≧20% = ++) | 146 (SLATAGDGLIEL; listed as Homo sapiens) [compound 146] |
| ″++++″ (≧75% = ++++) | 321 (GLFEDVTQPGILL; listed as Homo sapiens) [compound 321] |
| ″+++″ (≧50% = +++) | 135 (ALSEVDFQL; listed as Homo sapiens) [compound 135] |
| ″++″ (≧20% = ++) | 145 (FLATSGTLAGI; listed as Homo sapiens) [compound 145] |
| ″+++″ (≧50% = +++) | 312 (IISDLTIAL; listed as Homo sapiens) [compound 312] |
| ″+++″ (≧50% = +++) | 472 (KLLEVSDDPQV; listed as Homo sapiens) [compound 472] |
| ″++++″ (≧75% = ++++) | 10 (FLATFPLAAV; listed as Homo sapiens) [compound 10] |
| ″+++″ (≧50% = +++) | 537 (TLAPGEVLRSV; listed as Homo sapiens) [compound 537] |
| ″+++″ (≧50% = +++) | 596 (ALLDQTKTLAESAL; listed as Homo sapiens) [compound 596] |
| ″++″ (≧20% = ++) | 93 (LLQAIKLYL; listed as Homo sapiens) [compound 93] |
| ″++″ (≧20% = ++) | 47 (ILLSVPLLVV; listed as Homo sapiens) [compound 47] |
| ″+++″ (≧50% = +++) | 508 (ILAQEQLVVGV; listed as Homo sapiens) [compound 508] |
| ″+++″ (≧50% = +++) | 299 (YLLETSGNL; listed as Homo sapiens) [compound 299] |
| ″+++″ (≧50% = +++) | 254 (TLLAFIMEL; listed as Homo sapiens) [compound 254] |
